Experimental data from the nanobody polyreactivity screen of Harvey et al. (2022).

assay: yeast display, Sf9 membrane polyspecificity reagent, FACS + sequencing; frameworks hold sequencing errors
How it was run: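 Sorting gates, low and high (top ~1%), were placed on anti-HA fluorescence to track expression and on streptavidin fluorescence to track reagent binding. A clone's polyreactivity label is taken from the gate it came out of. The reagent was 10% biotinylated, detergent-solubilized Sf9 membrane, applied for 1 hour at 4 °C to galactose-induced yeast display cells.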

Sequence	polyreactivity (PSR sort gate)
QVQLVESGGGLVQAGGSLRLSCAASGSIFRYYAMGWYRQAPGKETEFGADISASGGSTYYADSVKGRFTISRDNAQNTVYLQMNSLKPEDNAVYYWAARYSYRRPGGYQLGSWGQGTQVTVSS	high polyreactivity
QVQLVESGGGLVQAGGSLRLSCAASGSIFRYYAMGWYRQAPGQERELVAAISRRGSSTYYADSVKGRFTISRDNAKNTVYLQLNSLKPEDTAVYYCAARSRHSGLTQPTLDYWGQGTQVTVSS	high polyreactivity
QVQLVESGGGLVQAGGSLRLSCAASGSIFRYYAMGWYRRAPGKERELVAAISRRGSSTYYADSVKGRFTISRDNAKNTVYLQMNSLKPEDTAVYYCAAGDFKQYDYWGQGTQVTVSS	high polyreactivity
QVQLVESGGGLVQAGGSLRLSCAASGSIFSANAMGWYRQAPGKERELVAAISRSGGRTYYADSVKGRFTISRDNAKNTVYLQMNSLKPEDTAVYYCAADKSRYSVGYDYWGQGTQVTVSS	high polyreactivity
QVQLVESGGGLVQAGGSLRLSCAASGSIFSANTMGWYRQEPGKEREFVAGITTSAGRTYYADSVKGRFTISRDNAKNTVYLQMNSLKPEDTAVYYCAARVWRSYNYWGQGTQVTVSS	high polyreactivity
QVQLVESGGGLVQAGGSLRLSCAASGSIFSDNVMGGYRQAPGKERELVAAIRDGDTTNYADSVKGRFTISRDNAKNTVYLQMNSLKPEDTAVYYCATRNTWYHRGYDYWGQGTQVTVSS	low polyreactivity
QVQLVESGGGLVQAGGSLRLSCAASGSIFSDNVMGWYRQAPGKERELVAAIRDGDTTNYADSVKGRFTISRDNAKNTVYLQMNCLKPEDTAVYYCAAVQASSPDYSYAYLDGDRDYWGQGTQVTVSS	low polyreactivity
QVQLVESGGGLVQAGGSLRLSCAASGSIFSENAMGWYRQAPGKERELVAAITGGASTNYADSVKGRFTISRDNAKNTVYLQMNSLKPEDTAVYYCAADANRTKFDYWGQGTQVTVSS	low polyreactivity
QVQLVESGGGLVQAGGSLRLSCAASGSIFSFYAMGWYRQAPGKERELVAAISRSGGSTYYADSVKGRFTISRDNAKNTVYLQMNSLKPEDTAVYYCAADYYYGTYDYWGQGTQVTVSS	low polyreactivity
QVQLVESGGGLVQAGGSLRLSCAASGSIFSFYAMGWYRQAPGKERELVAAISSSGGSTYYADSVKGRFTISRDNAKNTVYLKMNSLKPEDTAVYYCAARFAYGGGYWGQGTQVTVSS	high polyreactivity
QVQLVESGGGLVQAGGSLRLSCAASGSIFSFYAMGWYRQAPGKESELVAAISRSGGSTYYADSVKGRFTISRDNAKNTVYLQMNSQKPEDTAVYYCAVYAFSYPRYYYWGQGTQVTVSS	low polyreactivity
QVQLVESGGGLVQAGGSLRLSCAASGSIFSFYTMGWYRQAPGKERELVASSTTYADSVKGRFTISRDNAKNTVYLQMNSLKPEDTAVYYCAVDYNSLRYGPLGYWGQGTQVTVSS	low polyreactivity
QVQLVESGGGLVQAGGSLRLSCAASGSIFSGNAMGWYRQAPGKERELVAAITTRSGSTYYADSVKGRFTISRDNAKNTVYLQMNSLKPEDTAVYYCAATGYRYRRIYGFDYWGQGTQVTVSS	high polyreactivity
QVQLVESGGGLVQAGGSLRLSCAASGSIFSGNVIGWYRQAPGKERELVAAISGRGGSTYYADSVKGRFTISRDNAKNTVYLQMNSLKPEDTAVYYCAAVYLKTYYWGQGTQVTVSS	high polyreactivity
QVQLVESGGGLVQAGGSLRLSCAASGSIFSGYAMGWYRQAPGKERELVAAINSNGGRTYYADSVKGRFTISRDNAKNTVYLQMNSLKPEDTAVYYCNAAKRGWYYDYYYWGQGTQVTVSS	high polyreactivity
QVQLVESGGGLVQAGGSLRLSCAASGSIFSGYMGWYRQAPGKERELVATITSGGSTYADSVKGRFTISRDNAKNTVYLQMNSLKPEDTAVYYCAADVSFYTSKYDYWGQGTQVTVSS	low polyreactivity
QVQLVESGGGLVQAGGSLRLSCAASGSIFSHYAMGWYRQAPGKERELVAAISSSGNTYYADSVKGRFTISRDNAKNTVYLQMNSLKPEDTAVYYCNAVVYSPYRYEYWGQGTQVTVSS	low polyreactivity
QVQLVESGGGLVQAGGSLRLSCAASGSIFSINAMGWYRQAPGKERELVAAISWSGGSTYYADSVKGRFTISRDNAKNTVYLQMNSLKPEDTAVYYCNAEEDEYGELDYWGLGTQVTVSS	low polyreactivity
QVQLVESGGGLVQAGGSLRLSCAASGSIFSIYAMGWSRQAPGTERELVATITRNSGRTYYADSVKGRFTISRDNAKNTVYLQMNSLKPEDTAVYYCAASVKIISYLVHSEFLGGELDYWGQGTQVTVSS	low polyreactivity
QVQLVESGGGLVQAGGSLRLSCAASGSIFSIYAMGWYRQAPGTERELVASINSGDSTYYADSVKGRFTISRDNAKNTVYVQMNSLKPDDTAVYNCAATLVTVPLYRFDYWGQGTQVTVSS	low polyreactivity
QVQLVESGGGLVQAGGSLRLSCAASGSIFSIYAMGWYRQAPRKERELVAAISSSGRTYYADSVKGRFTISRDNAKNTVYLQMNSQKPVDTAVYYCNRVREGKHYYYWGQGTQVTVSS	high polyreactivity
QVQLVESGGGLVQAGGSLRLSCAASGSIFSKYVMGWYRQAPGKERELVAAISWSGTRTYYADSVKGRFTISRDNAKNTVYLQMNSLKPEDTAVYYCAARRLYAGHQYDYWGQGTQVTVSS	high polyreactivity

Sequence	polyreactivity (PSR sort gate)
QVQLVESGGGLVQAGGSLRLSCAASGSIFSLNAMGWYRQAPGKERELVAVINRSGTRTYYADSVKGRFTISRDNAKNTVYLQINSLKPEVTAVYYCNAEPSSGSDAQNEYWGQGTQVTVSS	high polyreactivity
QVQLVESGGGLVQAGGSLRLSCAASGSIFSPNAMGWYRQATGKERELVAAISWTGVSTHYADSVKGRFTISRDNAKNTDYLHMNSLKPEDTAVYYCKYRFYRYPKYGYWGQGTQVTVSS	high polyreactivity
QVQLVESGGGLVQAGGSLRLSCAASGSIFSPYAMGWYRQAPGKERELVAAITNSGGRTYYADSVKGRFTISRDNAKNTVYLQMNSLKPEDTAVYYCNADYGKHHTDYYYWGQGTQVTVSS	low polyreactivity
QVQLVESGGGLVQAGGSLRLSCAASGSIFSPYAMGWYRQAPGKERELVATITWSGGSTYYADSVKGRFTISRDNAKNTVYLQMNSLKPEDTAVYYCAATRSGYTSYTDDSWGQGTQVTVSS	high polyreactivity
QVQLVESGGGLVQAGGSLRLSCAASGSIFSQYAMGWYRPAPGKERELVAAISRSGGRTSYADSVKGRFTISRDNAKNTVYLQMNSLKPEDTAVYYCAARGPTNMGYWGQGTQVTVSS	high polyreactivity
QVQLVESGGGLVQAGGSLRLSCAASGSIFSQYAMGWYRQAPGKEREFVAAINWSGGRTRYADSVKGRFTISRDNAKNTVYLEMKSLKPEDTAVYYCNARGYSGVSGKYGYWGQGTQVTVSS	high polyreactivity
QVQLVESGGGLVQAGGSLRLSCAASGSIFSQYAMGWYRQAPGKERELVAAISGGGGSTSYADSVKGRFTISRDNAKNTVYLQMNSLKPDDTAVYYCAAYLYNRPYQLTGYYDGYGYWGQGTQVTVSS	low polyreactivity
QVQLVESGGGLVQAGGSLRLSCAASGSIFSQYAMGWYRQAPGKERELVAAISRSGGRTSYADSVKGRFTISRDNAKNTVYLQMNSLKPEDTAVYYCAARGPTNMGYWGQGTQVTVSS	high polyreactivity
QVQLVESGGGLVQAGGSLRLSCAASGSIFSQYVMGWYRQAPGNERELVAAIVWSSGSTYYADSVKGRFTMSRDNAKNTVYLQMNSLKPEDTAVYYCAARTKAFKPGYGYWGQGTQVTVSS	low polyreactivity
QVQLVESGGGLVQAGGSLRLSCAASGSIFSRNAMAWYRQAPGKERELVAAISGSGGSTYYADSVKGRFTISRDNAKNTVYLQMNSLKPEDTAVYYCNKFGYHREYDYWGQGTQVTVSS	low polyreactivity
QVQLVESGGGLVQAGGSLRLSCAASGSIFSRNAMGWYRQAPGKEREFVARISWSSTSTNYADSVKGRFTISRDNAKNTVYLQMNSLKPEDTAVYYCAADFRGDRRFDYWGQGTQVSVSS	low polyreactivity
QVQLVESGGGLVQAGGSLRLSCAASGSIFSRNAMGWYRQAPGKEREFVARISWSSTSTNYAESVKGRFTISRDNAKNTVYLQMNSLKPEDSAVYYCAAHFRGDRRFDYWGQGTQVTVSS	high polyreactivity
QVQLVESGGGLVQAGGSLRLSCAASGSIFSRNAMGWYRQAPGKERELVAAISWRGGSTYYADSVKGRFTISRDNAKYTVYLQMNSLKPEDTAVYYCGALSYPGKAGMGYWGQGTQVTVSS	high polyreactivity
QVQLVESGGGLVQAGGSLRLSCAASGSIFSRNTMGWYRQAPGKERELVAGISSSGSRTYYADSVKGRFTISRDNPKNTVYLQMNSLKPEDTAVYYCAAEHQRSRGRRYYIGYDYWGQGTQVTVSS	low polyreactivity
QVQLVESGGGLVQAGGSLRLSCAASGSIFSRYAMGRYRQAPGKERELVAAISKSGGSTYYADSVKGRFTISRDNAKNTVYLQMNSLKPEDTAVYYCNARDSPGQRRAEPYGYWGQGTQVTVSS	high polyreactivity
QVQLVESGGGLVQAGGSLRLSCAASGSIFSRYAMGWYRTAPGKERELVAAINKSGGSTYYADSVKGRFTISRDNAKNTVYLQMNSLKPEDTAVYYCNAVYYWYKGDYWGQGTQVTVSS	high polyreactivity
QVQLVESGGGLVQAGGSLRLSCAASGSIFSSNAMGWYRQAPGKERELVAAITRGGRTTYADSVKGRFTISRDNAKKTVYLQMNSLKPEDTAVYYCNAESYLTGWWVDYWGQGTQVTVSS	low polyreactivity
QVQLVESGGGLVQAGGSLRLSCAASGSIFSSNAMGWYRQPPGKERELVAAITSGGSTYYADSVKGRFTISRDNAKNTVYLQMNSLKPEDTAVYYCAASYWGFQRMYYWGQGTQVTVSS	high polyreactivity
QVQLVESGGGLVQAGGSLRLSCAASGSIFSSNTMGWYRPAPGKERELVAAITSGGGTYYADSVKGRFTISRDNAKNTVYLQMNSLKPEDTAVYYCAAQRVYKSSPSYDYWGQGTQVTVSS	low polyreactivity
QVQLVESGGGLVQAGGSLRLSCAASGSIFSSYAMGWSRQAPGKERELVAAISSGDSTYYADSVKGRFTISRDNAKTTVYLQMNSLKPEDTAVYYCAAPWYAWGQGTQVTVSS	low polyreactivity
QVQLVESGGGLVQAGGSLRLSCAASGSIFSSYAMGWYRQAPGKERELVAAISQSGGDTYYADSVKGRFTISRDNAKNTVYLQMNSLKPEDTAVYYCAASVWYYPMDYWGKGTQVTVSS	low polyreactivity
